B1: Protein S100-A9 (Homo sapiens), P06702 (parent)
chain: MTCKMSQLERNIETIINTFHQYSVKLGHPDTLNQGEFKELVRKDLQNFLKKENKNEKVIEHIMEDLDTNADKQLSFEEFIMLMARLTWASHEKMHEGDEGPGHHHKPGLGEGTP
partner: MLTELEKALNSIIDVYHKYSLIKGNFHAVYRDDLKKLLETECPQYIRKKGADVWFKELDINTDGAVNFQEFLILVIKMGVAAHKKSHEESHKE

Experimental findings from IntAct's records for PubMed 9867828 are described below.

The variants in the assay derive from B1. The conditions noted are these: with S100A8, P05109.
In the case of C3S, the “effect of a mutation on the interaction” value was “decreasing interaction”.
